± gives the standard deviation of the averaged measurements.
Tested on: ATP
Assay: switch fluorescence ratio, 500 uM ATP over buffer (Cy3 cluster intensity, sum of 5 cycles each) (fold (ratio)); higher = stronger signal-on switching upon ATP binding; sequences stand for … in TCGTCGGCAGCGTCAGATGTGTATAAGAGACAGTTTTTTTTTTTTTTTTTTTTTTTTT…TC
Conditions: aptamer strand: ATP DNA aptamer (quencher-CACCTGGGGGAGTATTGCGGAGGAAGG + anchor), 100 nM annealed; ATP concentration: 500 uM
Summary of the method: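 Clusters carrying Cy3-labelled switching strands on a modified Illumina MiSeq flow-cell were annealed to 100 nM quencher-labelled ATP aptamer and imaged in selection buffer. They were imaged again after 15 min with 500 uM ATP at 22 °C, over five buffer/ATP cycles with NaOH stripping and re-annealing in between. For each cluster, the fluorescence ratio is the summed Cy3 intensity of the target cycles divided by that of the buffer cycles, averaged per switch-domain sequence. Clusters outside 100-1000 RFU were left out.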
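Note: ATP exposure 15 min at 22 °C before imaging.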

Sequence | switch fluorescence ratio
CGTCTGTCGG | 1.03 ± 0.019
GGTTTAATTG | 1.026 ± 0.0085
AGTTTATCTG | 1.01 ± 0.04
TTGGCACGGG | 1.03 ± 0.022
CCACGGGGTT | 1.06 ± 0.072
TATGTCTCTT | 1.02 ± 0.021
TCGTTCAGCG | 0.997 ± 0.019
GCAGGTGTTC | 1.14 ± 0.02
GGCTGAAAAA | 0.915 ± 0.056
TGGGAGTTTC | 0.978 ± 0.01
TAGGGGGGCC | 0.9669 ± 0.0015
TTTCATTGTA | 1.01 ± 0.013
ATTGAGCTGT | 0.9812 ± 0.0062
GTAGCAGGCG | 1.13 ± 0.058
CTCTTGGGGT | 0.997 ± 0.021
CAGGTAGGTT | 1.02 ± 0.068
GGGGCTGGTT | 0.99 ± 0.024
GATTCGTACG | 1.01 ± 0.016
TTTCTTGGGC | 1.007 ± 0.0018
TACGACGGGC | 1.57 ± 0.5
AGTGTTTAAG | 1.036 ± 0.009
TTCTGTATGC | 1.02 ± 0.045

Sequence | switch fluorescence ratio
TTAGGGTTCC | 0.992 ± 0.035
TGCGTTACAG | 1.01 ± 0.044
TGTTGTTTGG | 1 ± 0.063
CGGTCCGTTT | 1.02 ± 0.042
CTGTGCGCCA | 1.122 ± 0.0038
TGCCAGAAGG | 1.021 ± 0.0041
CATTCGGGTG | 1.11 ± 0.027
TTTGCACAGT | 1.01 ± 0.021
ATCTTAGTGC | 1 ± 0.026
GCGAATATCT | 1.02 ± 0.037
TTCGCCGGCC | 1.26 ± 0.34
TCAACGTGCT | 1 ± 0.037
CGAGAAGAGT | 1.01 ± 0.053
ACATATTGTG | 1.03 ± 0.062
GCGTTTTTCG | 0.977 ± 0.042
TGATATTTCT | 1 ± 0.011
ATCGCGAGGA | 1.026 ± 0.0025
GAATTCGATC | 1.02 ± 0.029
ATTCTGACCG | 1.09 ± 0.068
TGGGGGTAGG | 1.01 ± 0.027
AGGAAAATGG | 1 ± 0.021
TGTTGGCCGG | 0.991 ± 0.026

Sequence | switch fluorescence ratio
GTTAGGTTGG | 0.9811 ± 0.007
GCTTATTCAG | 0.976 ± 0.013
GTGCTCAGGG | 1.02 ± 0.077
TTGTATTTTT | 0.98 ± 0.033
AGAGAAAGGC | 1.08 ± 0.051
AGTTGGCTTT | 1.018 ± 0.008
GGCGATACTA | 1.92 ± 0.11
GGTTTCCGGG | 1.01 ± 0.035
GAGGGACTGT | 0.972 ± 0.026
TTGATGGGAC | 1.12 ± 0.021
GCCGCTATTT | 1.43 ± 0.18
GGGGAGTCGG | 1.01 ± 0.047
TCGCAGCTTG | 1.05 ± 0.029
CAGTTAGATT | 1.01 ± 0.028
GGTCGGGTTT | 1.01 ± 0.014
TCGTGAGTAG | 0.973 ± 0.017
TGTTGACAGT | 1.01 ± 0.021
GCTGAGGATA | 0.984 ± 0.013
GTTCTTGGAG | 0.9991 ± 0.0031
TATAGGGTTT | 1.07 ± 0.12
TATACGGTTA | 1.06 ± 0.022
AGTAGGGTTA | 0.989 ± 0.029

Sequence | switch fluorescence ratio
CACTGGTGGC | 1.06 ± 0.022
AAAGGGGGTA | 0.986 ± 0.015
TGCGCGCTGG | 1 ± 0.041
TGAGGGAGTG | 0.996 ± 0.021
GAGATAGGGT | 1.03 ± 0.013
AGTAAGGGCG | 0.992 ± 0.039
TTGAGAAAAG | 1.06 ± 0.099
CGTGGGGTTT | 0.989 ± 0.022
GACGAGTTTT | 1.01 ± 0.022
ATGGTCGGGA | 0.986 ± 0.026
GCAGGGGTTC | 1.16 ± 0.15
AAAGAATAAA | 1.022 ± 0.0089
CTGGGGGCTC | 1.01 ± 0.018
TGGGGTAGCA | 1.01 ± 0.029
TATTGGGGGA | 0.995 ± 0.043
GGGGGGGAGA | 1.02 ± 0.029
AAGCCGTAGG | 0.991 ± 0.044
ATGTATCGGG | 0.975 ± 0.036
TGCTCTAAGG | 1.02 ± 0.046

From the supplement of paper PMC10126150
